± gives the uncertainty stated by the source.
B1: Pyruvate dehydrogenase protein X component, mitochondrial, residues 181 to 227; numbered along this chain, O00330 (parent)
chain: RFRLSPAARNILEKHSLDASQGTATGPRGIFTKEDALKLVQLKQTGK

Variants of: B1
Test: abundance fitness (aPCA) (normalised: wild type 0, dead -1); higher = more abundant; growth selection in yeast, the domain comes from the species named
Details: Homo sapiens

Row | Variant | abundance fitness
1 | RFRGSPAARNILEKHSLDASQGTATGPRGIFTKEDALKLVQLKQTGK [L4G] | -0.241 ± 0.044
2 | RFRCSPAARNILEKHSLDASQGTATGPRGIFTKEDALKLVQLKQTGK [L4C] | -0.086 ± 0.064
3 | RFRRSPAARNILEKHSLDASQGTATGPRGIFTKEDALKLVQLKQTGK [L4R] | -0.588 ± 0.058
4 | RFRYSPAARNILEKHSLDASQGTATGPRGIFTKEDALKLVQLKQTGK [L4Y] | -0.131 ± 0.077
5 | RFRLSPAARNILEKPSLDASQGTATGPRGIFTKEDALKLVQLKQTGK [H15P] | -0.575 ± 0.072
6 | RFRLSPAARNILEKNSLDASQGTATGPRGIFTKEDALKLVQLKQTGK [H15N] | 0.019 ± 0.078
7 | RFRLSPAARNILEKHSLDASQGTATGPRSIFTKEDALKLVQLKQTGK [G29S] | -0.435 ± 0.069
8 | RFRLSPAARNILEKHSLDASQGTATGPRTIFTKEDALKLVQLKQTGK [G29T] | -0.788 ± 0.082
9 | RFRLSPAARNILEKHSLDASQGTATGPRFIFTKEDALKLVQLKQTGK [G29F] | -1.05 ± 0.28
10 | RFRLSPAARNILEKHSLDASQGTATGPRGIFQKEDALKLVQLKQTGK [T32Q] | -0.376 ± 0.13
11 | RFRLSPAARNILEKHSLDASQGTATGPRGIFIKEDALKLVQLKQTGK [T32I] | -0.965 ± 0.21
12 | RFRLSPAARNILEKHSLDASQGTATGPRGIFAKEDALKLVQLKQTGK [T32A] | -0.462 ± 0.087
13 | RFRLSPAARNILEKHSLDASQGTATGPRGIFKKEDALKLVQLKQTGK [T32K] | -0.517 ± 0.15
14 | RFRLSPAARNILEKHSLDASQGTATGPRGIFTKEDALKLVQLKQDGK [T45D] | 0.07 ± 0.11
15 | RFRLSPAARNILEKHSLDASQGTATGPRGIFTKEDALKLVQLKQNGK [T45N] | 0.096 ± 0.12
16 | RFRLSPAARNILEKHSLDASQGTATGPRGIFTKEDALKLVQLKQGGK [T45G] | 0.166 ± 0.057
17 | RFRLSPAARNILEKHSLDASQGTATGPRGIFTKEEALKLVQLKQTGK [D35E] | -0.439 ± 0.2
18 | RFRLSPAARNILEKHSLDASQGTATGPRGIFTKELALKLVQLKQTGK [D35L] | -0.76 ± 0.12
19 | RFRLSPAARNILEKHSLDASQGTATGPRGIFTKERALKLVQLKQTGK [D35R] | -0.847 ± 0.093
20 | RFRLSPAARNILEKHSLDASQGTATGPRGIFTKECALKLVQLKQTGK [D35C] | -1.06 ± 0.19
21 | RFRLSPAARNILEKHSLDASQGTATGPRGIFTKEDALKLVQLKQTHK [G46H] | 0.38 ± 0.14
22 | RFRLSPAARNILEKHSLDASQGTATGPRGIFTKEDALKLVQLKQTVK [G46V] | -0.207 ± 0.069
23 | RFRLSPAARNILEKHSLDASQGTATGPRGIFTKEDALKLVQLKQTKK [G46K] | -0.375 ± 0.13
24 | RFRLSPAARNILEKHSLDRSQGTATGPRGIFTKEDALKLVQLKQTGK [A19R] | -0.362 ± 0.058
25 | RFRLSPAARNILEKHSLDKSQGTATGPRGIFTKEDALKLVQLKQTGK [A19K] | -0.602 ± 0.058
26 | RFRLSPAARNILEKHSLDISQGTATGPRGIFTKEDALKLVQLKQTGK [A19I] | -0.295 ± 0.16
27 | RFRLSPAARNILEKHSLDASQATATGPRGIFTKEDALKLVQLKQTGK [G22A] | -0.337 ± 0.067
28 | RFRLSPAARNILEKHSLDASQKTATGPRGIFTKEDALKLVQLKQTGK [G22K] | -0.633 ± 0.099

Row | Variant | abundance fitness
29 | RFRLSPAARNILEKHSLDASQGTATGPRGIFTKEDALKLFQLKQTGK [V40F] | -0.592 ± 0.16
30 | RFRLSPAARNILEKHSLDASQGTATGPRGIFTKEDALKLDQLKQTGK [V40D] | -0.195 ± 0.081
31 | RFRLSPAARNILEKHSLDASQGTATGPRGIFTKEDALKLQQLKQTGK [V40Q] | -0.252 ± 0.12
32 | RFRLSPAAQNILEKHSLDASQGTATGPRGIFTKEDALKLVQLKQTGK [R9Q] | -0.05 ± 0.079
33 | RFRLSPAARNILEKHSLDASQGTATGPRGIFTKEDALKKVQLKQTGK [L39K] | -0.545 ± 0.21
34 | RFRLSPAARNILEKHSLDASQGTATGPRGIFTKEDALKRVQLKQTGK [L39R] | -0.484 ± 0.12
35 | RFRLSPAARNILEKHSLDASQGTATGPRGIFTKEDALKEVQLKQTGK [L39E] | -0.28 ± 0.047
36 | RFRLSPAARNILEKHSLDASQGTATGPRGIFTKEDALKWVQLKQTGK [L39W] | -0.731 ± 0.098
37 | RFRLSPAARNILEKHSLDASSGTATGPRGIFTKEDALKLVQLKQTGK [Q21S] | -0.158 ± 0.058
38 | RFRLSPAARNILEKHSLDASQGTATGPRGIFTKEDALKLVQLRQTGK [K43R] | -0.245 ± 0.045
39 | RFRLSPAARNILEKHSLDASQGTATGPRGIFTKEDALKLVQLYQTGK [K43Y] | -0.193 ± 0.091
40 | RFRLSPAARNILEKHSLDASQGTATGPRGIFTKEDALKLVQLFQTGK [K43F] | -0.305 ± 0.084
41 | RFRLSPAARNILEKHSLDASQGTATGPRGIFTKEDALKLVILKQTGK [Q41I] | -0.648 ± 0.12
42 | RFRLSPAARNILEKHSLDASQGTATGPRGIFTKEDALKLVVLKQTGK [Q41V] | -0.287 ± 0.078
43 | RFRLSPAARNILEKHSLDASQGTATGRRGIFTKEDALKLVQLKQTGK [P27R] | -0.363 ± 0.046
44 | RFRLSPAARNILEKHSLDASQGTATGHRGIFTKEDALKLVQLKQTGK [P27H] | -0.309 ± 0.058
45 | RFRLSPAARNILEKHSLDASQGTATGIRGIFTKEDALKLVQLKQTGK [P27I] | -0.547 ± 0.11
46 | RFRLSPAARNILEKHSLDASQGTATGERGIFTKEDALKLVQLKQTGK [P27E] | -0.131 ± 0.059
47 | RFRLSPAARNILEKHSLDASQGTATGPRGIGTKEDALKLVQLKQTGK [F31G] | -0.195 ± 0.072
48 | RFRLSPAARNILEKHSLDASQGTATGPRGIWTKEDALKLVQLKQTGK [F31W] | -0.675 ± 0.14
49 | RFRLSPAARNILEKHSLDASQGTAPGPRGIFTKEDALKLVQLKQTGK [T25P] | -0.559 ± 0.064
50 | RFRLSPAARNILEKHSLDASQGTAWGPRGIFTKEDALKLVQLKQTGK [T25W] | -1.06 ± 0.12
51 | RFRLSPAARNILQKHSLDASQGTATGPRGIFTKEDALKLVQLKQTGK [E13Q] | -0.215 ± 0.1
52 | RFRLSPAARNILAKHSLDASQGTATGPRGIFTKEDALKLVQLKQTGK [E13A] | -0.255 ± 0.063
53 | RFRLSPAARNILTKHSLDASQGTATGPRGIFTKEDALKLVQLKQTGK [E13T] | -0.428 ± 0.055
54 | RFRLSPAARNILEKHSLDASQGTHTGPRGIFTKEDALKLVQLKQTGK [A24H] | -0.454 ± 0.053
55 | RFRLSPAARNILEKHSLDASQGTQTGPRGIFTKEDALKLVQLKQTGK [A24Q] | -0.597 ± 0.11
